Literature values as cited in PMC6983177.

Columns and labels:
pCDC25c (Homo sapiens) = pCDC25c (Homo sapiens) (UniProt P30307)
[1] = biological target: RNA polymerase II CTD phosphopeptide (Homo sapiens) (UniProt P24928); assay: isothermal titration calorimetry

UniProt P30307, sequence (P30307 2-473): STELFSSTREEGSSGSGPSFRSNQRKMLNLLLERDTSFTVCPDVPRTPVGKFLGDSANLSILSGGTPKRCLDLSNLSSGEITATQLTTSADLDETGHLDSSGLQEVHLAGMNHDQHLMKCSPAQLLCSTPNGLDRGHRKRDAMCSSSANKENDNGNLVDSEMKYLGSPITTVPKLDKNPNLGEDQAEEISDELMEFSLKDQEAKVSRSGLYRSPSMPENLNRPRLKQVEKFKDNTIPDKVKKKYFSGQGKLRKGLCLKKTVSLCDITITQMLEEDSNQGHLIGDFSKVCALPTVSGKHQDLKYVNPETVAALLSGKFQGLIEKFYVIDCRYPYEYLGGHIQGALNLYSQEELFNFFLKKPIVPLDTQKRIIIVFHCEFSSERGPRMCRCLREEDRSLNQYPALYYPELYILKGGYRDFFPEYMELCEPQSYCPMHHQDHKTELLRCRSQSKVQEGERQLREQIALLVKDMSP

Substance: Pin1 WW (from UniProt Q13526)
- Kd (pCDC25c (Homo sapiens)): 8 µM
- Kd [1]: 35 µM
